# Assay results from US20200216536A1.
# Values joined by “and” are separate entries in the source; they are usually repeats but may differ in a detail not shown here. Equal values may be shown once.
# Legend:
# canine FcRn [1] = target: T1, canine FcRn (UniProtKB-E2ROL6 [FcRn] and UniProtKB-E2RN10 [canine beta-2-microglobulin]) (canine); assay: SPR Biacore 8K, pH 5.5, Fc captured on BSA via SASA tag, FcRn 200 nM
# canine FcRn [2] = target: T1, canine FcRn; assay: as above; remark: listed apart in the source
# canine FcRn [3] = target: T1, canine FcRn; assay: as above; remark: listed apart in the source
# canine FcRn [4] = target: T1, canine FcRn; assay: as above; remark: listed apart in the source
# canine FcRn [5] = target: T1, canine FcRn; assay: as above; remark: listed apart in the source
# canine FcRn [6] = target: T1, canine FcRn; assay: as above; remark: listed apart in the source
# canine FcRn [7] = target: T1, canine FcRn; assay: as above; remark: listed apart in the source
# canine FcRn [8] = target: T1, canine FcRn; assay: as above; remark: listed apart in the source
# canine FcRn [9] = target: T1, canine FcRn; assay: SPR Biacore 8K, pH 5.5, Fc captured on BSA via SASA tag, FcRn 100-800 nM
# canine FcRn [10] = target: T1, canine FcRn; assay: SPR Biacore 8K, pH 5.5, Fc captured on BSA via SASA tag, FcRn 400 nM; average of the 12 wild-type runs
binder,measurement,setting,value
"wild-type canine IgG.B Fc (CH2 and CH3 domains) with SASA tag (Fc fusion, not shown: small tags and cut ends) APEMLGGPSVFIFPPKPKDTLLIARTPEVTCVVVDLDPEDPEVQISWFVDGKQMQTAKTQPREEQFNGTYRVVSVLPIGHQDWLKGKQFTCKVNNKALPSPIERTISKARGQAHQPSVYVLPPSREELSKNTVSLTCLIKDFFPPDIDVEWQSNGQQEPESKYRTTPPQLDEDGSYFLYSKLSVDKSRWQRGDTFICAVMHEALHNHYTQESLSHSPGK",Kd,canine FcRn [1],8.99 µM and 3.11 µM
same,koff,canine FcRn [1],0.347 s⁻¹ and 0.354 s⁻¹
same,kon,canine FcRn [1],38700 M⁻¹ s⁻¹ and 114000 M⁻¹ s⁻¹
same,Kd,canine FcRn [2],1.71 µM and 2.66 µM
same,koff,canine FcRn [2],0.288 s⁻¹ and 0.326 s⁻¹
same,kon,canine FcRn [2],168000 M⁻¹ s⁻¹ and 123000 M⁻¹ s⁻¹
same,Kd,canine FcRn [3],2.05 µM and 2.99 µM
same,koff,canine FcRn [3],0.31 s⁻¹ and 0.315 s⁻¹
same,kon,canine FcRn [3],151000 M⁻¹ s⁻¹ and 105000 M⁻¹ s⁻¹
same,Kd,canine FcRn [4],0.884 µM and 0.862 µM
same,koff,canine FcRn [4],0.21 s⁻¹ and 0.218 s⁻¹
same,kon,canine FcRn [4],237000 M⁻¹ s⁻¹ and 253000 M⁻¹ s⁻¹
same,Kd,canine FcRn [5],0.639 µM and 0.692 µM
same,koff,canine FcRn [5],0.17 s⁻¹ and 0.171 s⁻¹
same,kon,canine FcRn [5],267000 M⁻¹ s⁻¹ and 247000 M⁻¹ s⁻¹
same,Kd,canine FcRn [6],0.502 µM and 0.784 µM
same,koff,canine FcRn [6],0.169 s⁻¹ and 0.207 s⁻¹
same,kon,canine FcRn [6],336000 M⁻¹ s⁻¹ and 264000 M⁻¹ s⁻¹
same,Kd,canine FcRn [7],1.56 µM and 0.754 µM
same,koff,canine FcRn [7],0.179 s⁻¹ and 0.182 s⁻¹
same,kon,canine FcRn [7],115000 M⁻¹ s⁻¹ and 242000 M⁻¹ s⁻¹
same,Kd,canine FcRn [8],0.955 µM and 1.31 µM
same,koff,canine FcRn [8],0.181 s⁻¹ and 0.209 s⁻¹
same,kon,canine FcRn [8],190000 M⁻¹ s⁻¹ and 159000 M⁻¹ s⁻¹
same,Kd,canine FcRn [9],3.15 µM
same,koff,canine FcRn [9],0.527 s⁻¹
same,kon,canine FcRn [9],168000 M⁻¹ s⁻¹
same,Kd,canine FcRn [10],0.566 µM
